Data on 2 molecules can be found in patent US20090252754A1, “Vaccines containing the hiv tat protein as an adjuvant for the enhancement of cytotoxic t-cell responses” (priority 2003, published 2009).

Where two headings read alike, the source gives them in different places.

The subject of one experiment is LMP2. The experiment is described as follows: LMP2 expression in splenocytes of mice treated i.m. with Tat (Western blot). The format is in vivo. As to conditions: Balb/c mice, 1 μg i.m., 3 consecutive treatments. From the text:
Equal amounts of proteins were loaded on a 12% SDS-PAGE gel and electroblotted onto Protran nitrocellulose membranes (Schleicher & Schuell, Keene, Hampshire, USA). The blots were probed with antibodies specific for α2, LMP2, LMP7, MECL1, and PA28α subunits (Affinity, Exeter, UK) and developed by enhanced chemiluminescence (ECL, Amersham Pharmacia Biotech, Uppsala, SW).
Animal use was according to national and institutional guidelines. Seven-to-eight week old female Balb/c mice (Nossan, Milan, Italy) were injected with native monomeric biologically active Tat protein (1 μg) resuspended in degassed sterile PBS. Control mice were injected with oxidised Tat (1 μg) or with PBS alone. Samples (100 μl) were given by intramuscular (i.m.) injections in the quadriceps muscles of the posterior legs. Each experimental group consisted of three mice, and the experiment was repeated twice. Mice were boosted at days 11 and 20 after the first injection. Seven days after the last injection, animals were anaesthetised intraperitoneally (i.p.) with 100 μl of isotonic solution containing 1 mg of Inoketan (Virbac, Milan, Italy), and 200 μg Rompun (Bayer, Milan, Italy) and sacrificed to collect spleens. Mononuclear cells from individual spleens were purified using cells strainers, resuspended in PBS containing 20 mM EDTA, and treated with a red blood cells lysis buffer for 4 minutes at room temperature. […]
(In general: In western blotting, separated proteins are transferred to a membrane and probed.)

The test system of experiment [1] is proteasome subunits (α2, LMP2, LMP7, MECL1) in Jurkat cells. The experiment is described as follows: Western blot of proteasome subunits in Jurkat cells expressing or treated with Tat, Tat mutants or Tat peptides. Format: cell-based, human. Particulars: Jurkat cells expressing mutant. On the procedure: Jurkat T cells expressing Tat or mutated Tat (referred to as Tat22, wherein a Cys at position 22 is mutated) have previously been described (1). Cells were cultured in a medium supplemented with 800 μg/ml neomycin (Sigma, St. Louise, […].).
Cells were lysed with glass beads as previously described (4). Supernatants were ultracentrifuged for 1 h at 100,000 g and loaded into an affinity column containing a matrix derivatised with the MCP21 mAb specific for the α2 subunit of the proteasome (Affinity, Exeter, UK). Proteasomes were eluted with 25 mM Tris-HCl pH 7.5 containing 2 M NaCl, and 0.5 ml fractions were collected. Homogeneity of the eluted material was confirmed by analysis of an aliquot by SDS 12% PAGE and Coomassie blue staining of the gel. Fractions containing proteasomes were combined and dialysed against 25 mM Tris-HCl pH 7.5. Protein concentration was determined using the BCA method (Pierce Chemical, Rockford, Ill.).
Equal amounts of proteins, or equal amounts of purified proteasomes, were loaded on a 12% SDS-PAGE and electro-blotted onto Protran nitrocellulose membranes (Schleicher & Schuell, Keene, Hampshire, USA). Blots were probed with Abs specific for α2, LMP2 LMP7, MECL1, and PA28α subunits (Affinity), and developed by enhanced chemi-luminescence (ECL, Amersham Pharmacia Biotech, Uppsala, SW).

For another experiment, the system named is HIV-1 LTR. As to conditions: in contrast to wild-type Tat, cited from earlier work.

B1: oxidised Tat: oxidised form of the HIV-1 Tat protein, used as control (protein, UniProt P04608 1-86, looked up)
Protein Tat: MEPVDPRLEPWKHPGSQPKTACTNCYCKKCCFHCQVCFITKALGISYGRKKRRQRRRAHQNSQTHQASLSKQPTSQPRGDPTGPKE
modifications: oxidised
notes: oxidised form of the HIV-1 Tat protein, used as control
With B1, in the experiment with LMP2, the “LMP2 expression in splenocytes” value was “no effect”.

B2: Tat22: mutated HIV-1 Tat carrying glycine instead of cysteine 22 (SEQ ID NO 286) (protein)
chain: MEPVDPRLEPWKHPGSQPKTAGTNCYCKKCCFHCQVCFITKALGISYGRKKRRQRRRPPQGSQTHQVSLSKQPTSQSRGDPTGPKE
With B2, in experiment [1], the “subunit composition of proteasomes” value was “modifies the subunit composition of proteasomes”. Further, in the experiment on HIV-1 LTR, the “reactivation of latent infection” value is given as “do not induce” and the “transactivation of the HIV-1 LTR” value is “no effect”. Further, the “reactivation of latent infection” value in the experiment with HIV-1 LTR (listed as Tatcys22) is on record as “does not induce”.
